The values below come from PMC2921123 (2010).

Test in all cases: SPR
On the technique in general: Surface plasmon resonance follows binding to a sensor surface in real time, without labels.

For test [1], the target named is Fc portion of a human BCR μ-chain (Fcμ, amino acid residues 258-586), corresponding to Cμ2-Cμ4 (human).
Test [2] has as its target human Igαβ heterodimer, extracellular domains fused with a leucine zipper (Igαβ-LZ) (human) (UniProt P11912).
In a further test the target is T1, Fcμ Fc (Homo sapiens, UniProt P01871).
T1 chain: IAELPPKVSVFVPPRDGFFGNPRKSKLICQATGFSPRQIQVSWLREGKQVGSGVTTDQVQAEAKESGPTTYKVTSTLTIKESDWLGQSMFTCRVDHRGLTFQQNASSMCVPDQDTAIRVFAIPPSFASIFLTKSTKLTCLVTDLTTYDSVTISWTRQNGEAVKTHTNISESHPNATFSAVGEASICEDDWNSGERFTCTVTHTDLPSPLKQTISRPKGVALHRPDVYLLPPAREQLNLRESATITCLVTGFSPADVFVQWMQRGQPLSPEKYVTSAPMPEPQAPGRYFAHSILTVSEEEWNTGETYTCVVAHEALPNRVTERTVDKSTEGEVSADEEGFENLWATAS

Some results are limits rather than exact numbers.

Fc portion of a human BCR μ-chain (Fcμ, amino acid residues 258-586), corresponding to Cμ2-Cμ4 (human), sequence (P01871 whole entry, the tested form may be a part): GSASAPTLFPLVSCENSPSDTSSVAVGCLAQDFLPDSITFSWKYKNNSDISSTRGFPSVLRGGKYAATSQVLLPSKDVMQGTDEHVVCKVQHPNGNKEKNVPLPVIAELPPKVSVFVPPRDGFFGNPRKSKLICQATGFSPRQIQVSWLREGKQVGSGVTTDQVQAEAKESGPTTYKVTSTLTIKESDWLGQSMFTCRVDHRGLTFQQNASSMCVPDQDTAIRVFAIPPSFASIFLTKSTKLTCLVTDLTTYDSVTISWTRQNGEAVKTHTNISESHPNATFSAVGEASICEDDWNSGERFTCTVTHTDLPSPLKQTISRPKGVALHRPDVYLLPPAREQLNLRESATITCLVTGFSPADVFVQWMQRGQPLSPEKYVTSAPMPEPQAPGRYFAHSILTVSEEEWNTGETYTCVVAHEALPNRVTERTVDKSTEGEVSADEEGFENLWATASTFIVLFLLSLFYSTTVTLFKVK

In test [1], “human Igα extracellular portion, N60A (α3) (from UniProt P11912 33-143) (domain or fragment)” registered a fold increase of binding against the wild type of 2 fold.
In test [1], “human Igβ extracellular portion, R55A/K56A/R57A (β1) (from UniProt P40259 26-159) (domain or fragment)” yielded a fold reduction of binding against the wild type of 6 fold.
Molecule “human Igβ extracellular portion, Q123A/Q124A/K125A (β4) (from UniProt P40259 26-159) (domain or fragment)” gave a fold reduction of binding against the wild type in test [1] of 2 fold.
Consider “human IgM (from UniProt P01591 23-159) (antibody)”, for which the equilibrium dissociation constant (Kd) (commonly the constant that tells how readily two partners part at equilibrium) in test [2] is greater than 10000 nM.

B1: Igαβ (protein)
chain 1: LWMHKVPASLMVSLGEDAHFQCPHNSSNNANVTWWRVLHGNYTWPPEFLGPGEDPNGTLIIQNVNKSHGGIYVCRVQEGNESYQQSCGTYLRVRQPPPRPFLDMGEGTKNRIITAEGIILLFCAVVPGTLLLFRKRWQNEKLGLDAGDEYEDENLYEGLNLDDCSMYEDISRGLQGTYQDVGSLNIGDVQLEKP
chain 2: ARSEDRYRNPKGSACSRIWQSPRFIARKRGFTVKMHCYMNSASGNVSWLWKQEMDENPQQLKLEKGRMEESQNESLATLTIQGIRFEDNGIYFCQQKCNNTSEVYQGCGTELRVMGFSTLAQLKQRNTLKDGIIMIQTLLIILFIIVPIFLLLDKDDSKAGMEEDHTYEGLDIDQTATYEDIVTLRTGEVKWSVGEHPGQE
Molecule B1 registered a Kd in the test with Fcμ Fc of roughly 2000 nM.
